Assay results published in article PMC5708649 (PLoS ONE, 2017).

Molecular target: inactive E433A variant of full-length PgDPP III (Porphyromonas gingivalis W83, UniProt Q7MX92 1-886, E433A)
Experiment: ITC
Conditions: both partners purified

B1: tynorphin (peptide)
peptide: VVYPW
notes: also called VVYPW; pentapeptide tynorphin
B1: binds.

IVYPW: binds.
